Source: US20250382355A1 (Merck Sharp & Dohme, published 2025)
Numbering of substitutions follows the chain as printed.

T1: MERS spike protein on recombinant CHO K1 cells (MERS-CoV, UniProt K9N5Q8 18-1353)
T1 sequence: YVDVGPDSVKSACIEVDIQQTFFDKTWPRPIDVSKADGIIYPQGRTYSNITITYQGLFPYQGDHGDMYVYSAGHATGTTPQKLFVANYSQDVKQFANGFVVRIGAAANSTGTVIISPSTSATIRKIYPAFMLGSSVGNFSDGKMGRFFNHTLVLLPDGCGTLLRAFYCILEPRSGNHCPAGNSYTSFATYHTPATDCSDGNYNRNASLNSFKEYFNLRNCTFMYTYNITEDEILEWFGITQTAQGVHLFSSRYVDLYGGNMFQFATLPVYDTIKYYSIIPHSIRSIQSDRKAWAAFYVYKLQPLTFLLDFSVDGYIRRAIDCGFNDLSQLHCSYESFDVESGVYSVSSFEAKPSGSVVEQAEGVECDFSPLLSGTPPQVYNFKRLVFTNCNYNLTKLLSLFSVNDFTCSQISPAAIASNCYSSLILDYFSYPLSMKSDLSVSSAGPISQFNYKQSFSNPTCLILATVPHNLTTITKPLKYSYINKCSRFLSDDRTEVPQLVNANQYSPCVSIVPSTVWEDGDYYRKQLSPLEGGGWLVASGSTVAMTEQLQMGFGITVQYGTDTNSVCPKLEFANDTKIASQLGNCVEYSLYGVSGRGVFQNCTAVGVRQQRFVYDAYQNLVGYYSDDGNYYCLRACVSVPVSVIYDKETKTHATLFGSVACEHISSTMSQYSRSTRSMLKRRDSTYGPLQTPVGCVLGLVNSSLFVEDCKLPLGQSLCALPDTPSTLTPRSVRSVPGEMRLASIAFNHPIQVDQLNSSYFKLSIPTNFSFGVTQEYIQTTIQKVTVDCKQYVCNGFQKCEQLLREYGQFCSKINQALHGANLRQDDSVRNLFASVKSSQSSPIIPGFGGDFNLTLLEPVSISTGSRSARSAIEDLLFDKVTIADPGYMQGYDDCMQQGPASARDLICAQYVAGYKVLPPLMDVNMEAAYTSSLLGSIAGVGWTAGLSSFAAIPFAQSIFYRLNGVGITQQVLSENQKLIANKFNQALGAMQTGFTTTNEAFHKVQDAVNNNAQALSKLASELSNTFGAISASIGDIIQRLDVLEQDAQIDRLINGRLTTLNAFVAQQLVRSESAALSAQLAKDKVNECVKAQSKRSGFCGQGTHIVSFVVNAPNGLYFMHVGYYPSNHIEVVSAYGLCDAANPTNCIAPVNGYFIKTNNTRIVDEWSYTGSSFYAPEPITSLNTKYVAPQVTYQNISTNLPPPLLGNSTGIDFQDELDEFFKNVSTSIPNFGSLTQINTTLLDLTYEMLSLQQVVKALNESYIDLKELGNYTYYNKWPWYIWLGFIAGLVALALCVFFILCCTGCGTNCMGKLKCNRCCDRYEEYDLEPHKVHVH

B1: 10B8 VHH (VHH)
VHH: QVQLVESGGGLVQPGGSLRLSCAASGITLDYYAIAWFRQAPGKEREGVSCFCSSDGDIRYADSVKGRFTISRDNAKNTVYLQMNSLKPEDTAVYYCATERVYSSTWFFHRYSELDFGSWGRGTQVTVSS
B2: 11F8 VHH-Fc (Fc fusion)
chain: QVQLVESGGGLVQAGGSLRLSCAASGRTVGYYAVGWFRQAPGKERDFVAAISWSGRNTNYADSVTGRFTIFRDNAKNTVDLQMNSLKPEDTAVYYCAADYWNYGSGSEVPNNYDTWGQGTQVTVSS
B3: 13C8 VHH-Fc (Fc fusion)
chain: QVQLVESGGGLVQAGGSLRLSCAASGRTVNKYMTGWFRQTPGKEREFVASIDWSSTTTHYANSVKGRFTISRDKVKNTVYLQMNGLKPEDTAVYYCAAHQDSSYGYTILPIDYDSWGQGTQVTVSS
B4: 8E9 VHH-Fc (Fc fusion)
chain: QVQLVESGGGLVEAGGSLRLSCVASGSSSSINAMGWYRQAPGKQRELVASISHDGETKYANSVKGRFTISRGNAKNTIYLQMNSLKPEDTAVYYCVGDVAWVVVAGEYDYWGQGTQVTVSS
B5: 15H1 VHH-Fc (Fc fusion)
chain: QVQLVESGGGLAQAGGSLRLSCASSGLIFSGSAMGWFRQAPGKEREFVGVISWNGRTTYADSVKGRFTISRDDAVNMVWLQMNNLKPEDTAVYYCAADHLNYGSGDVNPRTYDYWGQGTQVTVSS
B6: 15H7 VHH-Fc (Fc fusion)
chain: QVQLVESGGRLVQAGGSLRLSCAAPGRTFRNLTLGWFRQAPGKEREFVASTSWPDDEMTYYTDSVKGRFTISRDNAKNTVYLQMNSLKPEDTAVYYCAAASWSGRSTLSYDYDYWGQGTQVTVST
B7: 1A11 VHH-Fc (Fc fusion)
chain: QVQLVESGGGLVQAGGSLRLSCEVSGSIYSINSMGWYRQAPGKQRELVAGIVSDGRINYADSVKGRFTISRAKNTVYLQMNSLKPEDTAVYYCAADRAFVYAGDYDYLGQGTQVTVSS
B8: 19E10 VHH-Fc (Fc fusion)
chain: QVQLVESGGGLVQPGGSLRLSCVASGSTISINSMGWYRQAPGKAREMVATITNDGPIKYADPVKGRFTISRDNPKNTVYLQMNSLKPEDTAVYYCVADRAYWLAGEWEYWGQGTQVTVSS
B9: 5D7 VHH-Fc (Fc fusion)
chain: QVQLVESGGGLVQAGGSLRLSCAASGRTGSRYIMGWFRQAPGKEREFVAAINWRGDSTYYADSVKGRFTIARDNAKNTAYLQMNSLKPEDTAVYYCVADRGESYYYTRSTEYTYWGQGTQVTVSS
B10: 3D4 VHH-Fc (Fc fusion)
chain: QVQLVESGGGLVQPGGSLRLSCAASGFTLDLNSIGWFRQAPGKEREGVSCISPSGSRMHYADSVKGRFTISRDNAKNTVYLQMNSLKPEDTAVYYCATGSPSYHYCSMYGLEYDSWGQGTQVTVPS
B11: 19C10 VHH-Fc (Fc fusion)
chain: B10 chain with G55A, R57S, M58T, S100T, S115D, P125S
B12: 9B2 VHH-Fc (Fc fusion)
chain: QVQLVESGGGLVQPGGSLRLSCAASGFTLDNYAIGWFRQAPGKEREGVSCISSSDGDTQYADSVKGRFTISRDNAKNTVYLQMNSLKPEDTAVYYCAVEKVYARSWFFHLCSELDFGSWGQGTQVTVSS
B13: 5A6 VHH-Fc (Fc fusion)
chain: QVQLVESGGGLAQAGGSLRLSCATSGLTFSMSAMGWFRQAPGNEREFVGVINWNGGSSRYADSVRGRFTISRDNAKNTVYLQMNSLKPEDTGVYYCAADALNIGTGEVNPRLYDYWGQGTQVMVSS
B14: 19B8 VHH-Fc (Fc fusion)
chain: QVQLVESGGGLVQAGGSLRLSCAASGRTFTNYAMGWFRQAPGKEREFVAAISWSGGGTNYADSVKGRFTISRDNAKNTVYLQMNSPKPEDTAVYYCATTLGYYGSSSRLYEYWGQGTQVTVSS
B15: 7A9 VHH-Fc (Fc fusion)
chain: QVQLVESGGGLVQAGGSLRLSCSASGGTASRSAMGWFRQAPGKEREFVAGISRRNSGSTYVADSYEDSVKGRFTISRDNAKNTIYLQMNSLKPEDTAVYYCAAEPTLGWYVPRRSVEYEYWGQGTQVTVSS
B16: 16H7 VHH-Fc (Fc fusion)
chain: QVQLVESGGGLVQAGGSLRLSCAASGRAFSKDTMGWFRQAPGKEREFVAVISASGDSTYYADFVKGRFTISRDNAKNTEYLQMNSLKPEDTAVYHCAADGARAYYSINAHRYSWAYNYWGQGTQVTVSS
B17: 20D11 VHH-Fc (Fc fusion)
chain: QVQLVESGGGLVQAGGSLRLSCAASGRTSSIYSVGWFRQAPGKERELVAGITWSGGTTYYSDSVKGRFTISRDNAKNTVNLQMNNLKPEDTAIYYCAVDRYSMTMSARDYDYWGQGTQVTVSS
B18: 14F3 VHH-Fc (Fc fusion)
chain: B17 chain with S33G, G50L, R72K, N80F, R100T, D111E
B19: 11F5 VHH-Fc (Fc fusion)
chain: QVQLVESGGGAVQAGDSLRLSCTASGRTFSTYAVGWFRQAPGKERELLAAITGSGRNPYYPDSLKGRFTISREYAKLPVYLQMNSLKPEDTAVYYCAARRGAIATMPLDYDHWGQGTQVTVSS
B20: S3_44 VHH-Fc (Fc fusion)
chain: QVQLVESGGGLVQPGGSLRLSCARSENNFSINAMAWYRQAPGKQRELVAAITTAGTTNYADSVKGRFTISRDNAKTTIYLQMNSLKPEDTAVYYCNLWAGTRDDLNEYWGQGTQVTVSS
B21: S3_29 VHH-Fc (Fc fusion)
chain: B20 chain with A54S

Legend:
[1] = biological target: spike protein of authentic SARS-CoV/Urbani virus (SARS-CoV, UniProt P59594 14-1255); assay: cell-based or functional assay
[2] = biological target: spike protein of authentic SARS-CoV-2 virus (SARS-CoV-2, UniProt P0DTC2 14-1273); assay: cell-based or functional assay
[3] = biological target: T1, MERS spike protein on recombinant CHO …; assay: FACS on CHO K1 cells
[4] = biological target: SARS-CoV spike protein on recombinant CHO K1 cells (SARS-CoV, UniProt P59594 14-1255); assay: FACS on CHO K1 cells
[5] = biological target: T2, SARS-CoV-2 spike protein on recombinant CHO K1 cells (SARS-CoV-2, UniProt P0DTC2 14-1273); assay: FACS on CHO K1 cells
T2 construct: whole, on cells

[6] = biological target: SARS-CoV spike on rVSV-deltaG-Luc pseudovirus (SARS-CoV, UniProt P59594 14-1236); assay: cell-based or functional assay

Binder	authentic virus neutralization IC50 [1] [pM]	authentic virus neutralization IC50 [2] [pM]	binding result [3]	EC50 [4] [pM]	EC50 [5] [pM]	pseudovirus neutralization IC50 [6] [pM]	EC50 [3] [pM]
B1	150	2900					
B2			no binding	90	80	207000	
B3			no binding	110	220	4980	
B4			no binding	170	310	2940	
B5			no binding	140	250	12300	
B6			no binding	140	280	1710	
B7			no binding	60	130	180	
B8			no binding	80	140	120	
B9			no binding	90	120	220000	
B10			no binding		150	400	
B11			no binding		170	450	
B12			no binding	130	210	190	
B13			no binding	210	430	6300	
B14			no binding		40	42000	
B15			no binding	50	80		
B16			no binding		310		
B17			no binding		80		
B18			no binding		60		
B19			no binding		40		
B20					80		110
B21					30		50
